According to patent publication US20200123264A1 (Regeneron, published 2020):
One block for each binder: values may come before it.

Assays:
[1] = target: T1, full-length human LEPR on IMR-32/STAT3-Luc/hLEPR cells (human, UniProt P48357 22-1165); test: cell-based or functional assay
T1 sequence (looked up): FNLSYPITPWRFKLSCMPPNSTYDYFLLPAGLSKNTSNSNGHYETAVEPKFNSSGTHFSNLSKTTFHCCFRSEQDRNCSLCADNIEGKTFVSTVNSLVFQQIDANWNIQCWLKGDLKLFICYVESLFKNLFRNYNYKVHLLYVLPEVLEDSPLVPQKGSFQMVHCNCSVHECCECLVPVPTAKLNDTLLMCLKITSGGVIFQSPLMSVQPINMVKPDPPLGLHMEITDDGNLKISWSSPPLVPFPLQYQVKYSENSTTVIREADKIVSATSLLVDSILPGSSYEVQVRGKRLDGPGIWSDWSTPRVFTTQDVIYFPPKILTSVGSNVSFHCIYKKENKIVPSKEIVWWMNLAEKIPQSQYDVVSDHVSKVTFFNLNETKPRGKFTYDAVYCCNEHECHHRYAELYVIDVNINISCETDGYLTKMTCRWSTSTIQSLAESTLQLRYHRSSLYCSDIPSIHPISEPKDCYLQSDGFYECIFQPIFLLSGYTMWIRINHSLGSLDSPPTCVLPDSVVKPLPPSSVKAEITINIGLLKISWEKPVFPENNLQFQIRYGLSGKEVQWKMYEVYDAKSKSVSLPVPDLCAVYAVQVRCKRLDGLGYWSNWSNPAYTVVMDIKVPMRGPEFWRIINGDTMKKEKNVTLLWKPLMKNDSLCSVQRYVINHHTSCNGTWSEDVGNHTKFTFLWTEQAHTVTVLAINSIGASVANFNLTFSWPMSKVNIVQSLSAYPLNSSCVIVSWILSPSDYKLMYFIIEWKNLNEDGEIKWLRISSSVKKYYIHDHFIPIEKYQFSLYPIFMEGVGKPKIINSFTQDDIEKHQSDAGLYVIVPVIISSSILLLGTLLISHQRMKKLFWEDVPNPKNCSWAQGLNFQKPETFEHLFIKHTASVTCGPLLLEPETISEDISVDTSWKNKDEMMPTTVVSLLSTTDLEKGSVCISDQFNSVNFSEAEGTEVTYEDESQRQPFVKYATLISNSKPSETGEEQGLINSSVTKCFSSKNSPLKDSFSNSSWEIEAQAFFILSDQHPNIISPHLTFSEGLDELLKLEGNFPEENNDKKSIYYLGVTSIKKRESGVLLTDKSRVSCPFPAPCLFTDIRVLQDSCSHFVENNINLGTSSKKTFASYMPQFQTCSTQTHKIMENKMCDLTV

human LEPR Ig (D3)-MMH = target: T2, human LEPR Ig (D3)-MMH (human, UniProt P48357 340-427, limits assumed); test: Luminex, myc-captured LEPR protein on beads, Ab 0.5 µg/mL
T2 construct: domain: Ig (D3); Transiently expressed, captured from supernatant on anti-myc beads
T2 sequence (looked up): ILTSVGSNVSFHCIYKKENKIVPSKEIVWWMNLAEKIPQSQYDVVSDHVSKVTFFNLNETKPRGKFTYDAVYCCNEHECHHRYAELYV
Description: (§1) Aliquots of microspheres with immobilized anti-myc monoclonal antibodies, prepared as described above, were added individually to 1 mL of the each of these protein supernatants. The microspheres were gently mixed, incubated for two hours at 25° C., washed twice with 1 mL of DBPS, centrifuged to remove the supernatant and finally resuspended in 1 mL of DPBS buffer. Forty eight μL of anti-myc IgG coupled microspheres from individual reactions with full length human LEPR and with each of the human LEPR domain proteins were withdrawn and mixed together in 3.6 mL of PBS+20 mg/mL BSA+0.05% sodium azide (blocking buffer).
(§2) From this mixed pool, 75 μL of microspheres were plated per well on a 96 well filter plate (Millipore, Cat. No: MSBVN1250) and mixed with 25 μL of individual anti-human LEPR monoclonal antibodies (0.5 or 5 μg/mL), incubated for two hours at 25° C. and then washed twice with 200 μL of DPBS with 0.05% Tween 20 (washing buffer). […] After 30 minutes, the samples were washed twice with 200 μL of washing buffer and resuspended in 150 μL of wash buffer. The Median Fluorescence intensity (MFI) of the microspheres was measured in a Luminex Analyzer.

human LEPR CRH1 (D1)-MMH = target: T3, human LEPR CRH1 (D1)-MMH (human, UniProt P48357 22-229, limits assumed); test: as above
T3 construct: domain: CRH1 (D1); Transiently expressed, captured from supernatant on anti-myc beads
T3 sequence (looked up): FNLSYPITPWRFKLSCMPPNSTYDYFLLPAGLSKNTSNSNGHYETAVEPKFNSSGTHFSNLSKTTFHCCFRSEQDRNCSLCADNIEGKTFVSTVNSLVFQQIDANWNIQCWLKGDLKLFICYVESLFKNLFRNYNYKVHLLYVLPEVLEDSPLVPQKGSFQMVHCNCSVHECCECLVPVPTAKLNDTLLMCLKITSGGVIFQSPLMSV
Description: as §1, §2

human LEPR FNIII-MMH = target: T4, human LEPR FNIII-MMH (human, UniProt P48357 636-839, limits assumed); test: as above
T4 construct: domain: FNIII; Transiently expressed, captured from supernatant on anti-myc beads
T4 sequence (looked up): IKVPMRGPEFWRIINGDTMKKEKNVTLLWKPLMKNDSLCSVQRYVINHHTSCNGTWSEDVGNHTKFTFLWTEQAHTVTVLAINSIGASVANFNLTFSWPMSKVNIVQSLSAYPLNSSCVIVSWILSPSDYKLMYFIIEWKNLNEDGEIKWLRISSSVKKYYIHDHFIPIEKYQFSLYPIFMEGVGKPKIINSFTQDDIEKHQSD
Description: as §1, §2

[2] = target: T5, human LEPR CRH1-Ig (D2,D3)-MMH (human, UniProt P48357 230-427, limits assumed); test: as above
T5 construct: domain: CRH1-Ig (D2,D3); Transiently expressed, captured from supernatant on anti-myc beads
T5 sequence (looked up): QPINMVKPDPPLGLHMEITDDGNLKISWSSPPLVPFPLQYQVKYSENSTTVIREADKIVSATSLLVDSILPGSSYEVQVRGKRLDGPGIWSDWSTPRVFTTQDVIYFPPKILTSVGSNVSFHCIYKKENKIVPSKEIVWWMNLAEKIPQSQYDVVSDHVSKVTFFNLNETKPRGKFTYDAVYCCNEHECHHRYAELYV
Description: as §1, §2

B1: H4H18440P2 (antibody, human IgG4, V domains shown)
VH: QVQLVESGGGMVKPGGSLRLSCAASGFTFSDYYMSWIRQAPGKGLEWISHISITGSTIYYADSVKGRFTISRDNAKNSLYLEMNRLRDEDTAVYYCTRDEPDIVLVRYGMDVWGQGTTVTVSS
VL: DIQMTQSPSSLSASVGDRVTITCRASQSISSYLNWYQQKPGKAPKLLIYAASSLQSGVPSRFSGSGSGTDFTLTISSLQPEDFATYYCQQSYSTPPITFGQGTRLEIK
notes: H4H prefix: human IgG4 Fc
% activation, IMR-32/LEPR without human Leptin [1]: 4%

B4: H4H18462P2 (antibody, human IgG4, V domains shown)
VH: EVQLVESGGDLVQPGRSLRLSCAASGFTFSSFAMSWVRQAPGRGLEWVSSLSDSGDNTYYADSVKGRFTISRDNSKNTLYLQMNNLRAEDTAVYYCAKDLFSGWLFHGFDVWGQGTMVTVSS
VL: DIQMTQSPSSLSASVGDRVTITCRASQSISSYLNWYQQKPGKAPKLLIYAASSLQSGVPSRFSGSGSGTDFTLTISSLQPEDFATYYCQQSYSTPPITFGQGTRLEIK
notes: H4H prefix: human IgG4 Fc
Luminex MFI (human LEPR Ig (D3)-MMH): 10 MFI
Luminex MFI (human LEPR CRH1 (D1)-MMH): 615 MFI
Luminex MFI (human LEPR FNIII-MMH): 229 MFI
Luminex MFI [2]: 25 MFI

Second part, the binder after the results:

% activation, IMR-32/LEPR without human Leptin [1]: 6%
% inhibition, IMR-32/LEPR with 200 pM human Leptin [1]: 100%
EC50 (M), IMR-32/LEPR without human Leptin (STAT3-Luc) [1]: 1.3e-10 M
IC50 (M), IMR-32/LEPR with 200 pM human Leptin [1]: 2.9e-09 M
B2: H4H18464P2 (antibody, human IgG4, V domains shown)
VH: QVQLVQSGPEVKKPGASVKVSCKGSGYTFSWYGISWIRQAPGHGLEWMGWISASSGNTRFAQKVQGRLTMTTDTSTSTAYMELRSLRSDDTAVYYCARTGTRPFDYWGQGTLVTVSS
VL: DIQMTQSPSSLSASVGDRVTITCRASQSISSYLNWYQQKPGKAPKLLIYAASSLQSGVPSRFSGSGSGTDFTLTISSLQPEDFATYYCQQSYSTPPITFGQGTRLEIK
notes: H4H prefix: human IgG4 Fc

% inhibition, IMR-32/LEPR with 200 pM human Leptin [1]: 100%
IC50 (M), IMR-32/LEPR with 200 pM human Leptin [1]: 7.23e-10 M
B3: H4H18457P2 (antibody, human IgG4, V domains shown)
VH: EVQLVESGGSVVRPGESLRLSCAASGFTFDDYGMSWVRQAPGKGLEWVSGISWNGGITVYADSVKGRFTVSRDNAKNSLYLQMNSLRAEDTALYHCARARYGGADYWGQGTLVTVSS
VL: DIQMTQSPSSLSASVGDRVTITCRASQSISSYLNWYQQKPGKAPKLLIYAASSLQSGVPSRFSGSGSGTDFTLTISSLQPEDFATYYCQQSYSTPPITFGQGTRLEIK
notes: H4H prefix: human IgG4 Fc
